This passage reports koff results from patent US20250129166A1 (Five Prime, published 2025).

Assay [1] concerns the target T1, monovalent hVISTA-ECD (amino acids 32-193 of SEQ ID NO: 1 with a 7xHis tail) (human, UniProt Q9H7M9 33-193).
T1 construct: also called huVISTA-His; human VISTA-ECD
The experiment in a line: SPR, mAb captured on Protein A, hVISTA-ECD analyte, 37 C, pH 7.4. The procedure: (§1) Binding kinetics were measured using a Biacore® T100 instrument (GE Healthcare). Protein A (ThermoFisher Scientific catalog #21181) was diluted to 20 μg/ml in 10 mM sodium acetate pH 4.5 and immobilized onto flow cells of a CM5 biosensor following the manufacturer's amine coupling protocol (GE Healthcare), targeting 2,000 RU immobilization density of Protein A per flow cell. The assay was conducted at 37° C. using PBST (137 mM sodium chloride, 2.7 mM potassium chloride, 10 mM phosphate buffer, 0.05% Tween 20) running buffer at pH 7.4, 6.7 and 6.0. Antibodies were diluted to 25 nM in PBST pH 7.4, and were captured across active biosensor flow cells at 5 ul/min for 40 seconds. A concentration series of 100-10 nM monovalent hVISTA-ECD (SEQ ID NO: 325) was prepared in pH 7.4, 6.7 and 6.0 running buffers, and was injected over the captured antibodies at 40 ul/min to measure association and dissociation. Two 15 second injections of 10 mM glycine pH 1.5 were used to regenerate the Protein A capture surface between assay cycles. Rate constants ka (kon) and kd (koff) were derived from reference flow cell and 0 nM blank-subtracted sensorgrams, and were fit to a 1:1 binding model in Biacore® T200 Evaluation Software v.2.0.
(§2) The affinity constant, KD was calculated as the ratio of rate constants koff/kₒₙ for each VISTA antibody. The % Rmax was calculated to compare how pH affects an antibody's binding capacity for VISTA, and represents the measured maximal VISTA binding response relative to the expected maximal VISTA binding response. The % Rmax is defined as the ratio of the reference-subtracted ‘binding’ report point response at the end of the 100 nM VISTA injection for each antibody (Rmax) relative to the expected VISTA binding response (Rexp). Rexp is calculated as Rexp=[(VISTA-ECD molecular weight/mAb molecular weight)×(mAb ‘capture’ report point response (RUs)]×2 binding sites per mAb.
(In general: In SPR one partner is held on a chip, and binding of the other changes the refractive index at the surface.)

In assay [2] the target is T1, monovalent hVISTA-ECD (amino acids …). Put plainly: SPR, mAb captured on Protein A, hVISTA-ECD analyte, 37 C, pH 6.7. The procedure:
as §1, §2

For assay [3] the target is unchanged. The experiment in a line: SPR, mAb captured on Protein A, hVISTA-ECD analyte, 37 C, pH 6.0. The procedure: as §1, §2

T1 sequence (Q9H7M9 other isoform, or with tags, fused parts or gaps limits assumed): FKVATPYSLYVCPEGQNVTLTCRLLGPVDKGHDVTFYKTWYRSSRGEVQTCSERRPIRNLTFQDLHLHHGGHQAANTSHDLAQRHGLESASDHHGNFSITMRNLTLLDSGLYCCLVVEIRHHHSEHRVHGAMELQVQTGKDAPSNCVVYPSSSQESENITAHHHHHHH

B1: P1-068761_E30D_E32Y (antibody, human IgG1, kappa, V domains shown)
VH: EVQLVESGGGLVQPGKSLRLSCAASGFTLDDYAMHWVRQAPGKGLEWVSGINWNSEEIGYADSVKGRFTISRDNAKNSLYLQMNSLRTEDTALYYCAKVPGYSHGWIDAEDVWGQGTMVTVSS
VL: not shown
notes: also called P1-070876
With B1, the results for the off-rate (koff) in assay [1], in assay [2] and in assay [3] were 0.0035 s⁻¹, 0.00099 s⁻¹ and 0.00071 s⁻¹, respectively.

B2: P1-068761_E56N_E100fF (antibody, human IgG1, kappa, V domains shown)
VH: EVQLVESGGGLVQPGKSLRLSCAASGFTLEDEAMHWVRQAPGKGLEWVSGINWNSENIGYADSVKGRFTISRDNAKNSLYLQMNSLRTEDTALYYCAKVPGYSHGWIDAFDVWGQGTMVTVSS
VL: not shown
notes: also called P1-070902
Regarding B2, the results for the koff in assay [1], in assay [2] and in assay [3] were 0.003 s⁻¹, 0.00061 s⁻¹ and 0.00038 s⁻¹, respectively.

B3: P1-068761_E32Y_E100fF (antibody, human IgG1, kappa, V domains shown)
VH: EVQLVESGGGLVQPGKSLRLSCAASGFTLEDYAMHWVRQAPGKGLEWVSGINWNSEEIGYADSVKGRFTISRDNAKNSLYLQMNSLRTEDTALYYCAKVPGYSHGWIDAFDVWGQGTMVTVSS
VL: not shown
notes: also called P1-070888
Turning to B3, the values for the koff in assay [1], in assay [2] and in assay [3] were 0.0019 s⁻¹, 0.00095 s⁻¹ and 0.0011 s⁻¹, respectively.

B4: P1-068761_E32Y (antibody, human IgG1, kappa, V domains shown)
VH: EVQLVESGGGLVQPGKSLRLSCAASGFTLEDYAMHWVRQAPGKGLEWVSGINWNSEEIGYADSVKGRFTISRDNAKNSLYLQMNSLRTEDTALYYCAKVPGYSHGWIDAEDVWGQGTMVTVSS
VL: not shown
notes: also called P1-070866
On to B4, for which the figures for the koff in assay [1], in assay [2] and in assay [3] were 0.0025 s⁻¹, 0.00064 s⁻¹ and 0.00041 s⁻¹, respectively.

B5: P1-068761_E30D_E100fF (antibody, human IgG1, kappa, V domains shown)
VH: EVQLVESGGGLVQPGKSLRLSCAASGFTLDDEAMHWVRQAPGKGLEWVSGINWNSEEIGYADSVKGRFTISRDNAKNSLYLQMNSLRTEDTALYYCAKVPGYSHGWIDAFDVWGQGTMVTVSS
VL: not shown
notes: also called P1-070896
As for B5, the koff in assay [1] was determined as 0.0035 s⁻¹; in assay [2], 0.00057 s⁻¹; in assay [3] it was 0.00033 s⁻¹.

B6: P1-068761_E100fF (antibody, human IgG1, kappa, V domains shown)
VH: EVQLVESGGGLVQPGKSLRLSCAASGFTLEDEAMHWVRQAPGKGLEWVSGINWNSEEIGYADSVKGRFTISRDNAKNSLYLQMNSLRTEDTALYYCAKVPGYSHGWIDAFDVWGQGTMVTVSS
VL: not shown
notes: also called P1-070874
Turning to B6, the dissociation rate constant (koff) in assay [1] stood at 0.0013 s⁻¹; in assay [2], 0.00022 s⁻¹; in assay [3], 0.00013 s⁻¹.

B7: P1-068761_E55A_E100fF (antibody, human IgG1, kappa, V domains shown)
VH: EVQLVESGGGLVQPGKSLRLSCAASGFTLEDEAMHWVRQAPGKGLEWVSGINWNSAEIGYADSVKGRFTISRDNAKNSLYLQMNSLRTEDTALYYCAKVPGYSHGWIDAFDVWGQGTMVTVSS
VL: not shown
notes: also called P1-070898
In the case of B7, the koff in assay [1] stood at 0.0017 s⁻¹; in assay [2], 0.00028 s⁻¹; in assay [3], 0.00018 s⁻¹.

B8: P1-068761_E32Y_E55A (antibody, human IgG1, kappa, V domains shown)
VH: EVQLVESGGGLVQPGKSLRLSCAASGFTLEDYAMHWVRQAPGKGLEWVSGINWNSAEIGYADSVKGRFTISRDNAKNSLYLQMNSLRTEDTALYYCAKVPGYSHGWIDAEDVWGQGTMVTVSS
VL: not shown
notes: also called P1-070882
Regarding B8, the koff in assay [1] stood at 0.0027 s⁻¹; in assay [2], 0.0006 s⁻¹; in assay [3], 0.00057 s⁻¹.

B9: P1-068761_E32Y_H100G (antibody, human IgG1, kappa, V domains shown)
VH: EVQLVESGGGLVQPGKSLRLSCAASGFTLEDYAMHWVRQAPGKGLEWVSGINWNSEEIGYADSVKGRFTISRDNAKNSLYLQMNSLRTEDTALYYCAKVPGYSGGWIDAEDVWGQGTMVTVSS
VL: not shown
notes: also called P1-070886
Regarding B9, the results for the koff in assay [1], in assay [2] and in assay [3] were 0.0055 s⁻¹, 0.0013 s⁻¹ and 0.00092 s⁻¹, respectively.

B10: P1-068761_E32Y_E56N (antibody, human IgG1, kappa, V domains shown)
VH: EVQLVESGGGLVQPGKSLRLSCAASGFTLEDYAMHWVRQAPGKGLEWVSGINWNSENIGYADSVKGRFTISRDNAKNSLYLQMNSLRTEDTALYYCAKVPGYSHGWIDAEDVWGQGTMVTVSS
VL: not shown
notes: also called P1-070884
For the molecule B10, the koff in assay [1] was 0.0032 s⁻¹; in assay [2], 0.00083 s⁻¹; in assay [3], 0.0007 s⁻¹.

A word on the koff: it is a measure of how fast the partners let go of each other.
